# Results as given in publication doi:10.1101/2024.11.13.623393.
# Target: microtubule polymers (alpha/beta tubulin)
# Experiment: co-sedimentation
binder,measurement,value
"Smc5-2KE hinge domain (residues 215 to 885, K624E K631E) (domain or fragment) LRELQGNEQSLQKDLDFKKAKIVHLRQESDKLRKSVESLRDFQNKKGEIELHSQLLPYVKVKDHKEKLNIYKEEYERAKANLRAILKDKKPFANTKKTLENQVEELTEKCSLKTDEFLKAKEKINEIFEKLNTIRDEVIKKKNQNEYYRGRTKKLQATIISTKEDFLRSQEILAQTHLPEKSVFEDIDIKRKEIINKEGEIRDLISEIDAKANAINHEMRSIQRQAESKTKSLTTTDKIGILNQDQDLKEVRDAVLMVREHPEMKDKILEPPIMTVSAINAQFAAYLAQCVDYNTSKALTVVDSDSYKLFANPILDKFKVNLRELSSADTTPPVPAETVRDLGFEGYLSDFITGDKRVMKMLCQTSKIHTIPVSRRELTPAQIKKLITPRPNGKILFKRIIHGNRLVDIEQSAYGSEQVFPTDVSIKQTNFYQGSIMSNEQKIRIENEIINLKNEYNDRKSTLDALSNQKSGYRHELSELASKNDDINREAHQLNEIRKKYTMRKSTIETLREKLDQLKREARKDVSQKIKDIDDQIQQLLLKQRHLLSKMASSMKSLKNCQKELISTQILQFEAQNMDVSMNDVIGFFNEREADLKSQYEDKKKFVKEMRDTPEFQSWMREIRSYDQDTKEKLNKVAEKYEEEGNFNLSFVQDVLDKLESEIAMVNHDES",fold reduction in binding affinity against wild-type Smc5,3 fold
